{
  "source": "patent US20130274129",
  "test_system": "AvrBs3-KRAB",
  "assay": "cell_activity",
  "conditions": "two copies of TAL site, LacZ reporter, 293FT; around 40% with one copy",
  "data": [
    {"substance": "AvrBs3 TAL binding site in CMV promoter reporter", "values": [
      {"measurement": "activity", "result": 70, "unit": "% repression"}
    ]}
  ]
}
